Laboratory results as given in patent publication US20240052047A1 (Pfizer, published 2024).

How the values were obtained:
[1] = target: T1, cynomolgus IL27 receptor (IL27RA/gp130 heterodimer) on cynomolgus T cells (cynomolgus monkey); assay: cell-based or functional assay
T1 chain 1: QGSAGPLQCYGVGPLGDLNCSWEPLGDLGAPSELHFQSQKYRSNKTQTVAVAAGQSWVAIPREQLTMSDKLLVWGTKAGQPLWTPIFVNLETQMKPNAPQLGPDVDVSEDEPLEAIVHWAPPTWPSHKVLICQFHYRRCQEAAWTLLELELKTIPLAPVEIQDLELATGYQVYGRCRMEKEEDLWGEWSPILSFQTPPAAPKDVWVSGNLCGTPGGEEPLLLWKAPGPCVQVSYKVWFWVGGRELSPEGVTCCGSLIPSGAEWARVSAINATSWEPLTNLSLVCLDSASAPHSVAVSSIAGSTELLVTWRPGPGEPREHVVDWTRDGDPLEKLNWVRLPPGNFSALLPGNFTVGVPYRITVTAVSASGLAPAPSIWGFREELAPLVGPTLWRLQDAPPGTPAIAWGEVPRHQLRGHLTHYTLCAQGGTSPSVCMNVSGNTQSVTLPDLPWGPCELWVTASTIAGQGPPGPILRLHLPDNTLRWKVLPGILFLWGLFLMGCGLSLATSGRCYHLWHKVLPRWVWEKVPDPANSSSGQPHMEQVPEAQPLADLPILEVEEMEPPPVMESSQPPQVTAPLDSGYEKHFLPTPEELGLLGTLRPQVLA
T1 chain 2: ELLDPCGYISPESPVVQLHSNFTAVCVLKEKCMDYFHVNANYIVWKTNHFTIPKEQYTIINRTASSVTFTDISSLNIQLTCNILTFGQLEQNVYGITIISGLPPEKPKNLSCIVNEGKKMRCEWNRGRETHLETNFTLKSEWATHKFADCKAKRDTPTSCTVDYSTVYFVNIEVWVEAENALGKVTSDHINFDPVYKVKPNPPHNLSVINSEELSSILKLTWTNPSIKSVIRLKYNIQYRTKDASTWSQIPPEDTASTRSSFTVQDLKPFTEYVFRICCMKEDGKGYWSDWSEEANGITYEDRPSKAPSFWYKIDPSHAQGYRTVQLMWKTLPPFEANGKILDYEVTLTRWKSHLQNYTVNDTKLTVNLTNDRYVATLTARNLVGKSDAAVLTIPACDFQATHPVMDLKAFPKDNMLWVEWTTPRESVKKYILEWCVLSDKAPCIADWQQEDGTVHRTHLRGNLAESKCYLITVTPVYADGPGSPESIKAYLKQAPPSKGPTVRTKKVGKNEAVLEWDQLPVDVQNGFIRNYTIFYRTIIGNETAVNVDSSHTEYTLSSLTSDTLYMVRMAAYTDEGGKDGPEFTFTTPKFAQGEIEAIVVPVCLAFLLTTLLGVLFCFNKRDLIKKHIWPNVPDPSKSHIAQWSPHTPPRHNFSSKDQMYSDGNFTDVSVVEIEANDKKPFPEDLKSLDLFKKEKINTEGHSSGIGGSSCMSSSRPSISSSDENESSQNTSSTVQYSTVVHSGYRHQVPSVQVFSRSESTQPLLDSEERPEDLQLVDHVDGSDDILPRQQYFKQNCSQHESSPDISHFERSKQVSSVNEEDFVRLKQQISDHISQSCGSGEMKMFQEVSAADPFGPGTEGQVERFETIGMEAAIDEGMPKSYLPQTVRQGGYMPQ

[2] = target: T2, human IL27 receptor (IL27RA/gp130 heterodimer) on human cells (human, UniProt Q6UWB1 33-636; P40189 23-918); assay: cell-based or functional assay
[3] = target: T2, human IL27 receptor (IL27RA/gp130 …); assay: cell-based or functional assay; remark: listed apart in the source
Human gp130 = target: T3, Human gp130 (human, UniProt P40189 23-619); assay: SPR Biacore 8K+, 37 C; mAb-4894 captured by anti-Fab, antigen as analyte; 1:1 Langmuir fit
T3 construct: Soluble analyte in SPR and antigen in ELISA/screens; also called huGP130
T3 sequence: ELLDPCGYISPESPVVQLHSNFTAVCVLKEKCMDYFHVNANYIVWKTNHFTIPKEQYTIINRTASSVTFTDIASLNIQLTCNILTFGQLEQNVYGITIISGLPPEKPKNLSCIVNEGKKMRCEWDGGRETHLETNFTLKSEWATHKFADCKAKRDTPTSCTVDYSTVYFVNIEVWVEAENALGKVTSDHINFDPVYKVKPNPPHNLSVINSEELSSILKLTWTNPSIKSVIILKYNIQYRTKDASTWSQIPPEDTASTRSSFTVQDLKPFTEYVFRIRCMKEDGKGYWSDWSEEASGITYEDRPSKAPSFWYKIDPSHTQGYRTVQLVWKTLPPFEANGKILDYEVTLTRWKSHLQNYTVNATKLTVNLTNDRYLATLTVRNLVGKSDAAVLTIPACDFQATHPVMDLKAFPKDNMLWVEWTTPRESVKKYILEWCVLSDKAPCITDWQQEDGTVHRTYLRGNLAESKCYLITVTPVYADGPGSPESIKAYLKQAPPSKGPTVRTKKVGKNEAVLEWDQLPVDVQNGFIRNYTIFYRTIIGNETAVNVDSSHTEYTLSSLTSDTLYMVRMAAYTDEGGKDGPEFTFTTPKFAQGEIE
Procedure: The crossreactivity of mAb-4894 to human and cynomolgus monkey antigens, gp130 (human—SEQ ID NO: 45, cynomolgus—SEQ ID No: 46) and IL27RA (human—SEQ ID NO: 41, cynomolgus—SEQ ID No: 42), was measured by surface plasmon resonance by anti-FAB capture of mAb-4894 (containing arms of anti-IL27RA-4880 EE and anti-gp130-4875 RR) on a biacore chip. Human or cynomolgus monkey IL27RA or gp130 was flowed over the chip and on and off rates were determined, and the affinity constants calculated.
Flow cell 1 for each channel was used as a reference flow cell. After antibody capture, three-fold dilution series of cytokines with concentrations ranging from 405 nM to 15 nM for huGP130 and cyGP130 and 45 nM to 1.67 nM for huIL27R and cyIL27R or HBS-EP+ buffer were injected over the sensor surface for 60 seconds at 50 μl/minute. The dissociation was monitored for 600 seconds and the surface was regenerated with 2 injections of 10 mM Glycine pH 1.7 at 30 μl/minute. The data was double referenced (Myszka, D., J. Mol. Recognit 1999; 279-284). Binding affinities and rate constants were determined for human and cyno GP130 and IL27R by fitting the resulting sensorgram data to a 1:1 Langmuir model in BIAcore Insight Evaluation software version 3.0.12.15655 (Cytiva).

T Cell pSTAT1 EC50 (cynomolgus whole blood, CD3+ T cells, flow cytometry) [1]: 1.74 nM
T Cell pSTAT3 EC50 (cynomolgus whole blood, CD3+ T cells, flow cytometry) [1]: 1.17 nM
Th17 Cells IL-17A IC50 (MSD immunoassay of supernatant) [2]: 5.5 pM
IDO1 in CD14+ monocytes EC50 [3]: 8 pM
PD-L1 in CD14+ monocytes EC50 (human whole blood) [3]: 2 pM
pSTAT1 in CD3+ T cells EC50 (human whole blood) [3]: 83 pM
Kd (Human gp130): 170000 pM
koff (Human gp130): 0.0566 s⁻¹
kon (Human gp130): 337000 M⁻¹ s⁻¹
B1: mAb-4894 anti-IL27RA/gp130 bispecific antibody (bispecific antibody, human IgG1)
heavy 1: EVQLVESGGGLVQPGGSLRLSCAASGFTFEYFGLQWVRQAPGKGLEWIGYTSSGGNYEYYEETLKGRFTISRDNAKNSLYLQMNSLRAEDTAVYYCARTKTGDYWGQGTLVTVSSASTKGPSVFPLAPSSKSTSGGTAALGCLVKDYFPEPVTVSWNSGALTSGVHTFPAVLQSSGLYSLSSVVTVPSSSLGTQTYICNVNHKPSNTKVDKKVEPKSCEKTHTCPPCPAPEAAGAPSVFLFPPKPKDTLMISRTPEVTCVVVDVSHEDPEVKFNWYVDGVEVHNAKTKPREEQYNSTYRVVSVLTVLHQDWLNGKEYKCKVSNKALPAPIEKTISKAKGQPREPQVYTLPPSREEMTKNQVSLTCEVKGFYPSDIAVEWESNGQPENNYKTTPPVLDSDGSFFLYSKLTVDKSRWQQGNVFSCSVMHEALHNHYTQKSLSLSPGK
light 1: DIQMTQSPSSLSASVGDRVTITCRASQDIGNSLTWYQQKPGKAPKRVIFGATGLAAGVPSRFSGSGSGTDFTLTISSLQPEDFATYYCLQSKQYPYTFGQGTKLEIKRTVAAPSVFIFPPSDEQLKSGTASVVCLLNNFYPREAKVQWKVDNALQSGNSQESVTEQDSKDSTYSLSSTLTLSKADYEKHKVYACEVTHQGLSSPVTKSFNRGEC
heavy 2: QVQLVQSGAEVKKPGSSVKVSCKVSGGSISSYYWSWVRQAPGQGLEWIGRIYITGNTNYNPSLKDRVTMTVDTSTSTHYMELSSLRSEDTAVYYCAREGPKLGIFDYWGQGTLVTVSSASTKGPSVFPLAPSSKSTSGGTAALGCLVKDYFPEPVTVSWNSGALTSGVHTFPAVLQSSGLYSLSSVVTVPSSSLGTQTYICNVNHKPSNTKVDKKVEPKSCRKTHTCPPCPAPEAAGAPSVFLFPPKPKDTLMISRTPEVTCVVVDVSHEDPEVKFNWYVDGVEVHNAKTKPREEQYNSTYRVVSVLTVLHQDWLNGKEYKCKVSNKALPAPIEKTISKAKGQPREPQVYTLPPSREEMTKNQVSLTCLVKGFYPSDIAVEWESNGQPENNYKTTPPVLDSDGSFFLYSRLTVDKSRWQQGNVFSCSVMHEALHNHYTQKSLSLSPGK
light 2: DIQMTQSPSSLSASVGDRVTITCRASQSVSSSYLAWYQQKPGKAPKLLIYGTESRATGVPSRFSGSGSGTDFTLTISSLQPEDFATYYCQQYGGYPTFGGGTKVEIKRTVAAPSVFIFPPSDEQLKSGTASVVCLLNNFYPREAKVQWKVDNALQSGNSQESVTEQDSKDSTYSLSSTLTLSKADYEKHKVYACEVTHQGLSSPVTKSFNRGEC
notes: Human IgG1 EE/RR heterodimer with L234A, L235A, G237A (EU); also called GBT-IL27R-4894; GBT-IL-27R-4894
